# Molecular target: SARS-CoV S-6P protein (SARS-CoV) (UniProt P59594)
# Experiment: cryo-EM structure
substance,measurement,value
SARS-CoV S-6P protein (from UniProt P59594 14-1195) (domain or fragment),stoichiometry N,3

# — doi:10.1101/2022.01.19.476892
